Assay results: publication PMC3950713

How the values were obtained:
Test in all cases: MST
HpDprA(5-217)H8E = molecular target: T1, HpDprA(5-217)H8E (Helicobacter pylori 26695, UniProt O25100 5-217, H8E)
T1 sequence: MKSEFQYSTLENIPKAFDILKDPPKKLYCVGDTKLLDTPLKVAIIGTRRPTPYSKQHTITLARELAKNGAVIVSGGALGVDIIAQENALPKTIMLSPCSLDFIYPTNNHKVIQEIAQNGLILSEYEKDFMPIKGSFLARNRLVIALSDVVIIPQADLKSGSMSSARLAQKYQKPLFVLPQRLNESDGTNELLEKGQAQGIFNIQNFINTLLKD

HpDprA(5-217)K137E = molecular target: T2, HpDprA(5-217)K137E (Helicobacter pylori 26695, UniProt O25100 5-217, K137E)
T2 sequence: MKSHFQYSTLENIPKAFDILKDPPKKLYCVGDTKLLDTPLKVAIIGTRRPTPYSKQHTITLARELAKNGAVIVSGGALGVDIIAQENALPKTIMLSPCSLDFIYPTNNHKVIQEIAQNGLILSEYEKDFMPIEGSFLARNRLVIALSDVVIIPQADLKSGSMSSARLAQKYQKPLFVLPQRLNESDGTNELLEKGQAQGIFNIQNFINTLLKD

HpDprA(5-217)K137E/R143E = molecular target: T3, HpDprA(5-217)K137E/R143E (Helicobacter pylori 26695, UniProt O25100 5-217, K137E;R143E)
T3 sequence: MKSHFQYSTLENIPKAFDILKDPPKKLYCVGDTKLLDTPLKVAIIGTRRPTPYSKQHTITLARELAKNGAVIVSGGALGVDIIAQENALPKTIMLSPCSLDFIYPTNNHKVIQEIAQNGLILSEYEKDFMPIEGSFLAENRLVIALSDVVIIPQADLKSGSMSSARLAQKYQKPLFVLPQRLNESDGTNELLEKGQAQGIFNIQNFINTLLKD

HpDprA(5-217)R52E/K137E = molecular target: T4, HpDprA(5-217)R52E/K137E (Helicobacter pylori 26695, UniProt O25100 5-217, R52E;K137E)
T4 sequence: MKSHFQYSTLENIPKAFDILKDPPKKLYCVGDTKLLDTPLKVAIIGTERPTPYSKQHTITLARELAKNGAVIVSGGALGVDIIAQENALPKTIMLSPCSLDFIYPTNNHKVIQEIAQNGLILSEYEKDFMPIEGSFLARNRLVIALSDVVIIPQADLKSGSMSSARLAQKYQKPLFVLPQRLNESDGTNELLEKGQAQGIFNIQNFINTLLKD

HpDprA(5-225) = molecular target: T5, HpDprA(5-225) (Helicobacter pylori 26695, UniProt O25100 5-225)
T5 sequence: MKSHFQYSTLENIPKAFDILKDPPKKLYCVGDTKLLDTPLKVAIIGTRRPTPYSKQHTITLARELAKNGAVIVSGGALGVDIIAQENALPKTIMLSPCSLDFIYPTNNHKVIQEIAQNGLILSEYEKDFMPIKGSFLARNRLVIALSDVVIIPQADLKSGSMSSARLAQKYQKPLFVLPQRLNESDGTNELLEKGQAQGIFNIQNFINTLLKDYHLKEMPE

HpDprA(5-217)WT = molecular target: T6, HpDprA(5-217)WT (Helicobacter pylori 26695, UniProt O25100 5-217)
T6 sequence: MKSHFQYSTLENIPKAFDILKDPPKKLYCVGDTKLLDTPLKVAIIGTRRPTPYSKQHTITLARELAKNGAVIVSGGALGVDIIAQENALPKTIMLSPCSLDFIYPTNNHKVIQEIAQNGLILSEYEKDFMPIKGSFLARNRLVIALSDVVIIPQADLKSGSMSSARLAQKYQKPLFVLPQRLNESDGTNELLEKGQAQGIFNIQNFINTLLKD

HpDprA(5-217)R143E = molecular target: T7, HpDprA(5-217)R143E (Helicobacter pylori 26695, UniProt O25100 5-217, R143E)
T7 sequence: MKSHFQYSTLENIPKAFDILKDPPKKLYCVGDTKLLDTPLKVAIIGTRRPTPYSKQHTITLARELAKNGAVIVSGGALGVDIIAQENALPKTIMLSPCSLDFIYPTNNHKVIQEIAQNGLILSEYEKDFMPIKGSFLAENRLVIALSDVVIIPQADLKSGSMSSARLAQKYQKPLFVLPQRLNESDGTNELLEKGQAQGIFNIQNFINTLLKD

TTTTTTTTTTTTTTTTTTTTTTTTTTTTTTTTTTT (ssDNA) [dT35]
Kd (HpDprA(5-217)H8E): 66.3 ± 0.721 nM
Kd (HpDprA(5-217)K137E): 7220 ± 216 nM
binding result (HpDprA(5-217)K137E/R143E): no binding
binding result (HpDprA(5-217)R52E/K137E): no binding
Kd (HpDprA(5-225)): 30.6 ± 0.998 nM
Kd (HpDprA(5-217)WT): 31.5 ± 0.806 nM
Kd (HpDprA(5-217)R143E): 5470 ± 246 nM
